Results from patent US10801046B2, “Methods and materials for biosynthesizing multifunctional, multivariate molecules via carbon chain modification” (INVISTA NORTH AMERICA S.A.R.L., priority 2016, dated 2020).

B1: SEQ ID NO: 27: Mycobacterium smegmatis fatty-acid-CoA ligase with carboxylate reductase activity (protein)
chain: MTIETREDRFNRRIDHLFETDPQFAAARPDEAISAAAADPELRLPAAVKQILAGYADRPALGKRAVEFVTDEEGRTTAKLLPRFDTITYRQLAGRIQAVTNAWHNHPVNAGDRVAILGFTSVDYTTIDIALLELGAVSVPLQTSAPVAQLQPIVAETEPKVIASSVDFLADAVALVESGPAPSRLVVFDYSHEVDDQREAFEAAKGKLAGTGVVVETITDALDRGRSLADAPLYVPDEADPLTLLIYTSGSTGTPKGAMYPESKTATMWQAGSKARWDETLGVMPSITLNFMPMSHVMGRGILCSTLASGGTAYFAARSDLSTFLEDLALVRPTQLNFVPRIWDMLFQEYQSRLDNRRAEGSEDRAEAAVLEEVRTQLLGGRFVSALTGSAPISAEMKSWVEDLLDMHLLEGYGSTEAGAVFIDGQIQRPPVIDYKLVDVPDLGYFATDRPYPRGELLVKSEQMFPGYYKRPEITAEMFDEDGYYRTGDIVAELGPDHLEYLDRRNNVLKLSQGEFVTVSKLEAVFGDSPLVRQIYVYGNSARSYLLAVVVPTEEALSRWDGDELKSRISDSLQDAARAAGLQSYEIPRDFLVETTPFTLENGLLTGIRKLARPKLKAHYGERLEQLYTDLAEGQANELRELRRNGADRPVVETVSRAAVALLGASVTDLRSDAHFTDLGGDSLSALSFSNLLHEIFDVDVPVGVIVSPATDLAGVAAYIEGELRGSKRPTYASVHGRDATEVRARDLALGKFIDAKTLSAAPGLPRSGTEIRTVLLTGATGFLGRYLALEWLERMDLVDGKVICLVRARSDDEARARLDATFDTGDATLLEHYRALAADHLEVIAGDKGEADLGLDHDTWQRLADTVDLIVDPAALVNHVLPYSQMFGPNALGTAELIRIALTTTIKPYVYVSTIGVGQGISPEAFVEDADIREISATRRVDDSYANGYGNSKWAGEVLLREAHDWCGLPVSVFRCDMILADTTYSGQLNLPDMFTRLMLSLVATGIAPGSFYELDADGNRQRAHYDGLPVEFIAEAISTIGSQVTDGFETFHVMNPYDDGIGLDEYVDWLIEAGYPVHRVDDYATWLSRFETALRALPERQRQASLLPLLHNYQQPSPPVCGAMAPTDRFRAAVQDAKIGPDKDIPHVTADVIVKYISNLQMLGLL
modifications: Mycobacterium smegmatis (strain ATCC 700084 / mc(2)155)
B2: SEQ ID NO: 88: Clostridium sulfidigenes thioesterase (protein)
chain: MELNYKEQFTIKFHEGDFMGNVKLFTIMDYVQQVSEGHSQILGVDFQSMMNKGLFWVVSRVEITMERYPKVGEDITVETCLGGREKVFMKRRFKIKDKDGQVIGRVLIYYLIVDIETRLPQKPSMCPVDININVGDVIDNKLNKIKMPGEAIETVNRKLYYNDIDINNHVNNAKYISFIEDFFSLDWHRVKKISYMQLNFIKEIKFDDSLIMNKFIEDKESNSFCINGISEISEQEFFQCRLKF
modifications: Clostridium sulfidigenes
notes: Clostridium sulfidigenes thioesterase
B3: SEQ ID NO: 25: Mycobacterium marinum carboxylate reductase (protein)
chain: MSPITREERLERRIQDLYANDPQFAAAKPATAITAAIERPGLPLPQIIETVMTGYADRPALAQRSVEFVTDAGTGHTTLRLLPHFETISYGELWDRISALADVLSTEQTVKPGDRVCLLGFNSVDYATIDMTLARLGAVAVPLQTSAAITQLQPIVAETQPTMIAASVDALADATELALSGQTATRVLVFDHHRQVDAHRAAVESARERLAGSAVVETLAEAIARGDVPRGASAGSAPGTDVSDDSLALLIYTSGSTGAPKGAMYPRRNVATFWRKRTWFEGGYEPSITLNFMPMSHVMGRQILYGTLCNGGTAYFVAKSDLSTLFEDLALVRPTELTFVPRVWDMVFDEFQSEVDRRLVDGADRVALEAQVKAEIRNDVLGGRYTSALTGSAPISDEMKAWVEELLDMHLVEGYGSTEAGMILIDGAIRRPAVLDYKLVDVPDLGYFLTDRPHPRGELLVKTDSLFPGYYQRAEVTADVFDADGFYRTGDIMAEVGPEQFVYLDRRNNVLKLSQGEFVTVSKLEAVFGDSPLVRQIYIYGNSARAYLLAVIVPTQEALDAVPVEELKARLGDSLQEVAKAAGLQSYEIPRDFIIETTPWTLENGLLTGIRKLARPQLKKHYGELLEQIYTDLAHGQADELRSLRQSGADAPVLVTVCRAAAALLGGSASDVQPDAHFTDLGGDSLSALSFTNLLHEIFDIEVPVGVIVSPANDLQALADYVEAARKPGSSRPTFASVHGASNGQVTEVHAGDLSLDKFIDAATLAEAPRLPAANTQVRTVLLTGATGFLGRYLALEWLERMDLVDGKLICLVRAKSDTEARARLDKTFDSGDPELLAHYRALAGDHLEVLAGDKGEADLGLDRQTWQRLADTVDLIVDPAALVNHVLPYSQLFGPNALGTAELLRLALTSKIKPYSYTSTIGVADQIPPSAFTEDADIRVISATRAVDDSYANGYSNSKWAGEVLLREAHDLCGLPVAVFRCDMILADTTWAGQLNVPDMFTRMILSLAATGIAPGSFYELAADGARQRAHYDGLPVEFIAEAISTLGAQSQDGFHTYHVMNPYDDGIGLDEFVDWLNESGCPIQRIADYGDWLQRFETALRALPDRQRHSSLLPLLHNYRQPERPVRGSIAPTDRFRAAVQEAKIGPDKDIPHVGAPIIVKYVSDLRLLGLL
modifications: Mycobacterium marinum (strain ATCC BAA-535 / M)
notes: Mycobacterium marinum carboxylate reductase
B4: SEQ ID NO: 91: Cryptobacterium curtum thioesterase (protein)
chain: MTISASLFLEKDYRLRTGDFDRYRRLHPTAVLDLFQDIGGLQAEMMGIGYDAMAAQDVFWAVVRTAYQVEHTPAEHEVVKVSTWPHSPSRYSFQRDYALRSTDGSLLVRGTSEWVLMDMNTRSLTSVLDYYHGSLDFIDERMFAKKLRKIRDFTEEGSGLSITPRYSDVDQNGHVNNARYASFVLDALDPSAAGSIASFQIDFRHEVIEGTPLVVFTQVEGKDIQAKGLDSNGEIKFACKITAQA
modifications: Cryptobacterium curtum (strain ATCC 700683 / DSM 15641 / 12-3)
notes: Cryptobacterium curtum thioesterase

Experiments:
Type in all cases: biochemical
[1] = Carboxylate reductase activity, 7-hydroxyheptanoate to 7-hydroxyheptanal, NADPH consumption at 340 nm; conditions: enhanced by gene product of sfp, 20 min, against empty vector control, FIG. 44
Experimental: A sequence encoding a His-tag was added to the genes from Mycobacterium marinum, Mycobacterium smegmatis, Segniliparus rugosus, Mycobacterium smegmatis, Mycobacterium massiliense, and Segniliparus rotundus that encode the carboxylate reductases of SEQ ID NOs: 25 (GenBank Accession No. ACC40567.1), 27 (GenBank Accession No. ABK75684.1), 29 (GenBank Accession No. ABK71854.1), 31 (GenBank Accession No. EFV11917.1), 37 (GenBank Accession No. EIV11143.1), and 38 (GenBank Accession No. ADG98140.1) such that N-terminal HIS tagged carboxylate reductases could be produced. Each of the modified genes was cloned into a pET Duet expression vector alongside a sfp gene encoding a His-tagged phosphopantetheine transferase from Bacillus subtilis, both under control of the T7 promoter.
Each expression vector was transformed into a BL21[DE3] E. coli host and the resulting recombinant E. coli strains were cultivated at 37° C. in a 250 mL shake flask culture containing 50 mL LB media and antibiotic selection pressure, with shaking at 230 rpm. Each culture was induced overnight at 37° C. using an auto-induction media.
The pellet from each induced shake flask culture was harvested via centrifugation. Each pellet was resuspended and lysed via sonication. The cell debris was separated from the supernatant via centrifugation. The carboxylate reductases and phosphopantetheine transferase were purified from the supernatant using Ni-affinity chromatography, diluted 10-fold into 50 mM HEPES buffer (pH=7.5) and concentrated via ultrafiltration.
Enzyme activity (i.e., 7-hydroxyheptanoate to 7-hydroxyheptanal) assays were performed in triplicate in a buffer composed of a final concentration of 50 mM HEPES buffer (pH=7.5), 2 mM […], 10 mM MgCl2, 1 mM ATP, and 1 mM NADPH. Each enzyme activity assay reaction was initiated by adding purified carboxylate reductase and phosphopantetheine transferase or the empty vector control to the assay buffer containing the 7-hydroxyheptanoate and then incubated at room temperature for 20 min. The consumption of NADPH was monitored by absorbance at 340 nm.

heptanedioyl-ACP = experiment: Cell lysate in vitro thioesterase screen (DTNB, absorbance at 410 nm) on heptanedioyl-ACP; conditions: 0.33 mM acyl-ACP substrate, 30° C., 30 min
[2] = tested on: heptanedioyl-ACP methyl ester; experiment: Cell lysate in vitro thioesterase screen (DTNB, absorbance at 410 nm) on heptanedioyl-ACP methyl ester; conditions: 0.33 mM acyl-ACP substrate, 30° C., 30 min

| Molecule | acceptance of 7-hydroxyheptanoate as substrate, forming 7-hydroxyheptanal [1] | activity toward heptanedioyl-ACP (hydrolysis) (heptanedioyl-ACP) | activity toward heptanedioyl-ACP methyl ester (hydrolysis) [2] |
| --- | --- | --- | --- |
| B1 | accepted 7-hydroxyheptanoate as substrate | – | – |
| B2 | – | notable for their activity toward heptanedioyl-ACP | notable for their activity toward heptanedioyl-ACP methyl ester |
| B3 | accepted 7-hydroxyheptanoate as substrate | – | – |
| B4 | – | notable for their activity toward heptanedioyl-ACP | notable for their activity toward heptanedioyl-ACP methyl ester |
